# From patent publication US20140087995A1 (published 2014)
# Numbered stars: 1 amine (or outer) side, 2 acyl side, 3 side chain; on linkers, the order of the positions; unused ones are H or OH. Bridge positions count the residues as written; N and C are the ends. * marks the point of attachment. C20 diacid = O=C(O)CCCCCCCCCCCCCCCCCCC(=O)*; γGlu = O=C(O)[C@H](CCC(=O)[*:2])N[*:1]; AEEA = NCCOCCOCC(=O)O
# B1: N^α1-[2-[2-[2-[[2-[2-[2-[[(4S)-4-carboxy-4-(19-carboxynonadecanoylamino)butanoyl]amino]ethoxy]ethoxy]acetyl]amino]ethoxy]ethoxy]acetyl]-[Glu14,Arg17,Pro21,Pro27 … (peptide)
# peptide: {C20 diacid-γGlu-AEEA-AEEA}-KCNTATCATQRLAEFLRHSSPNFGAIPSSTNVGSNTP-NH2
# modifications: disulfide 2-7
# SMILES: CC[C@H](C)[C@H](NC(=O)[C@H](C)NC(=O)CNC(=O)[C@H](Cc1ccccc1)NC(=O)[C@H](CC(N)=O)NC(=O)[C@@H]1CCCN1C(=O)[C@H](CO)NC(=O)[C@H](CO)NC(=O)[C@H](Cc1c[nH]cn1)NC(=O)[C@H](CCCNC(=N)N)NC(=O)[C@H](CC(C)C)NC(=O)[C@H](Cc1ccccc1)NC(=O)[C@H](CCC(=O)O)NC(=O)[C@H](C)NC(=O)[C@H](CC(C)C)NC(=O)[C@H](CCCNC(=N)N)NC(=O)[C@H](CCC(N)=O)NC(=O)[C@@H](NC(=O)[C@H](C)NC(=O)[C@@H]1CSSC[C@H](NC(=O)[C@H](CCCCN)NC(=O)COCCOCCNC(=O)COCCOCCNC(=O)CC[C@H](NC(=O)CCCCCCCCCCCCCCCCCCC(=O)O)C(=O)O)C(=O)N[C@@H](CC(N)=O)C(=O)N[C@@H]([C@@H](C)O)C(=O)N[C@@H](C)C(=O)N[C@@H]([C@@H](C)O)C(=O)N1)[C@@H](C)O)C(=O)N1CCC[C@H]1C(=O)N[C@@H](CO)C(=O)N[C@@H](CO)C(=O)N[C@H](C(=O)N[C@@H](CC(N)=O)C(=O)N[C@H](C(=O)NCC(=O)N[C@@H](CO)C(=O)N[C@@H](CC(N)=O)C(=O)N[C@H](C(=O)N1CCC[C@H]1C(N)=O)[C@@H](C)O)C(C)C)[C@@H](C)O
# notes: also called compound 20
# B2: N^α1-[(4S)-4-carboxy-4-(19-carboxynonadecanoylamino)butanoyl]-[Glu14,Arg17,Pro21,Pro25,Pro28,Pro29]-h-amylin (peptide)
# peptide: {C20 diacid-γGlu}-KCNTATCATQRLAEFLRHSSPNFGPILPPTNVGSNTY-NH2
# modifications: disulfide 2-7
# SMILES: CC[C@H](C)[C@H](NC(=O)[C@@H]1CCCN1C(=O)CNC(=O)[C@H](Cc1ccccc1)NC(=O)[C@H](CC(N)=O)NC(=O)[C@@H]1CCCN1C(=O)[C@H](CO)NC(=O)[C@H](CO)NC(=O)[C@H](Cc1c[nH]cn1)NC(=O)[C@H](CCCNC(=N)N)NC(=O)[C@H](CC(C)C)NC(=O)[C@H](Cc1ccccc1)NC(=O)[C@H](CCC(=O)O)NC(=O)[C@H](C)NC(=O)[C@H](CC(C)C)NC(=O)[C@H](CCCNC(=N)N)NC(=O)[C@H](CCC(N)=O)NC(=O)[C@@H](NC(=O)[C@H](C)NC(=O)[C@@H]1CSSC[C@H](NC(=O)[C@H](CCCCN)NC(=O)CC[C@H](NC(=O)CCCCCCCCCCCCCCCCCCC(=O)O)C(=O)O)C(=O)N[C@@H](CC(N)=O)C(=O)N[C@@H]([C@@H](C)O)C(=O)N[C@@H](C)C(=O)N[C@@H]([C@@H](C)O)C(=O)N1)[C@@H](C)O)C(=O)N[C@@H](CC(C)C)C(=O)N1CCC[C@H]1C(=O)N1CCC[C@H]1C(=O)N[C@H](C(=O)N[C@@H](CC(N)=O)C(=O)N[C@H](C(=O)NCC(=O)N[C@@H](CO)C(=O)N[C@@H](CC(N)=O)C(=O)N[C@H](C(=O)N[C@@H](Cc1ccc(O)cc1)C(N)=O)[C@@H](C)O)C(C)C)[C@@H](C)O
# notes: also called compound 6
# B3: N^α1-[(4S)-4-carboxy-4-(19-carboxynonadecanoylamino)butanoyl]-[Glu14,Arg17,Pro21,Pro25,Pro28,Pro29,Pro37]-h-amylin (peptide)
# peptide: {C20 diacid-γGlu}-KCNTATCATQRLAEFLRHSSPNFGPILPPTNVGSNTP-NH2
# modifications: disulfide 2-7
# SMILES: CC[C@H](C)[C@H](NC(=O)[C@@H]1CCCN1C(=O)CNC(=O)[C@H](Cc1ccccc1)NC(=O)[C@H](CC(N)=O)NC(=O)[C@@H]1CCCN1C(=O)[C@H](CO)NC(=O)[C@H](CO)NC(=O)[C@H](Cc1c[nH]cn1)NC(=O)[C@H](CCCNC(=N)N)NC(=O)[C@H](CC(C)C)NC(=O)[C@H](Cc1ccccc1)NC(=O)[C@H](CCC(=O)O)NC(=O)[C@H](C)NC(=O)[C@H](CC(C)C)NC(=O)[C@H](CCCNC(=N)N)NC(=O)[C@H](CCC(N)=O)NC(=O)[C@@H](NC(=O)[C@H](C)NC(=O)[C@@H]1CSSC[C@H](NC(=O)[C@H](CCCCN)NC(=O)CC[C@H](NC(=O)CCCCCCCCCCCCCCCCCCC(=O)O)C(=O)O)C(=O)N[C@@H](CC(N)=O)C(=O)N[C@@H]([C@@H](C)O)C(=O)N[C@@H](C)C(=O)N[C@@H]([C@@H](C)O)C(=O)N1)[C@@H](C)O)C(=O)N[C@@H](CC(C)C)C(=O)N1CCC[C@H]1C(=O)N1CCC[C@H]1C(=O)N[C@H](C(=O)N[C@@H](CC(N)=O)C(=O)N[C@H](C(=O)NCC(=O)N[C@@H](CO)C(=O)N[C@@H](CC(N)=O)C(=O)N[C@H](C(=O)N1CCC[C@H]1C(N)=O)[C@@H](C)O)C(C)C)[C@@H](C)O
# notes: also called compound 4
# B4: N^α1-[(4S)-4-carboxy-4-(19-carboxynonadecanoylamino)butanoyl]-[Glu14,Arg17,Pro21,Pro26,Pro37]-h-amylin (peptide)
# peptide: {C20 diacid-γGlu}-KCNTATCATQRLAEFLRHSSPNFGAPLSSTNVGSNTP-NH2
# modifications: disulfide 2-7
# SMILES: CC(C)C[C@H](NC(=O)[C@H](CCCNC(=N)N)NC(=O)[C@H](CCC(N)=O)NC(=O)[C@@H](NC(=O)[C@H](C)NC(=O)[C@@H]1CSSC[C@H](NC(=O)[C@H](CCCCN)NC(=O)CC[C@H](NC(=O)CCCCCCCCCCCCCCCCCCC(=O)O)C(=O)O)C(=O)N[C@@H](CC(N)=O)C(=O)N[C@@H]([C@@H](C)O)C(=O)N[C@@H](C)C(=O)N[C@@H]([C@@H](C)O)C(=O)N1)[C@@H](C)O)C(=O)N[C@@H](C)C(=O)N[C@@H](CCC(=O)O)C(=O)N[C@@H](Cc1ccccc1)C(=O)N[C@@H](CC(C)C)C(=O)N[C@@H](CCCNC(=N)N)C(=O)N[C@@H](Cc1c[nH]cn1)C(=O)N[C@@H](CO)C(=O)N[C@@H](CO)C(=O)N1CCC[C@H]1C(=O)N[C@@H](CC(N)=O)C(=O)N[C@@H](Cc1ccccc1)C(=O)NCC(=O)N[C@@H](C)C(=O)N1CCC[C@H]1C(=O)N[C@@H](CC(C)C)C(=O)N[C@@H](CO)C(=O)N[C@@H](CO)C(=O)N[C@H](C(=O)N[C@@H](CC(N)=O)C(=O)N[C@H](C(=O)NCC(=O)N[C@@H](CO)C(=O)N[C@@H](CC(N)=O)C(=O)N[C@H](C(=O)N1CCC[C@H]1C(N)=O)[C@@H](C)O)C(C)C)[C@@H](C)O
# notes: also called compound 5
# Experiments:
# [1] = target: T1, human amylin 3(a) receptor (human calcitonin receptor plus RAMP-3) (human, UniProt P30988 25-474; O60896 24-148, limits assumed); assay: cell-based or functional assay
# T1 sequence (looked up) 1: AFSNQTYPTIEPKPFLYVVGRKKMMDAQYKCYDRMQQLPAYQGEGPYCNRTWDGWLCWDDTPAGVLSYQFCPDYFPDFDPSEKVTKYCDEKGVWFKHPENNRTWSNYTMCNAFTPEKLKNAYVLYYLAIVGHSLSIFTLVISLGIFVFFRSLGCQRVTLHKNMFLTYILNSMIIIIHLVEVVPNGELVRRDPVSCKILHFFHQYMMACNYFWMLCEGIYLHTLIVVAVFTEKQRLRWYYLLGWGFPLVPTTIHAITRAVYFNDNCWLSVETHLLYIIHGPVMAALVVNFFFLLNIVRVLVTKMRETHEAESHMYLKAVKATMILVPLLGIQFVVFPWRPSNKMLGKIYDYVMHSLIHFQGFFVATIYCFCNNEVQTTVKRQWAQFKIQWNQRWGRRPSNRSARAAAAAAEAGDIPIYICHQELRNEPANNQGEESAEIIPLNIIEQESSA
# T1 sequence (looked up) 2: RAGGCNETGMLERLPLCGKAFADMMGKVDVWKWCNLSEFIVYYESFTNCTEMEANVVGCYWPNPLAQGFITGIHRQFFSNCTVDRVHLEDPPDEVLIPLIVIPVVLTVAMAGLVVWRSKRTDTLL
# [2] = target: T2, human calcitonin receptor (human, UniProt P30988 25-474); assay: cell-based or functional assay
# T2 sequence (looked up): T1 sequence (looked up) 1
# [3] = target: T1, human amylin 3(a) receptor (human …); assay: SPA competition binding, displacement of 125I-rat amylin from membranes of Amylin 3(a)/CRE-luc BHK cells (Assay V)
# Method: The binding assay was performed using scintillation proximity assay (SPA) beads (RPNQ0001) from PerkinElmer and cell membranes from the Amylin 3(a)/CRE-luc cells (as described in Assay (II)) were used. Membranes were prepared in the following way; the cells were rinsed with PBS and incubated with Versene for approximately 5 min before harvesting. The cells were flushed with PBS and the cell-suspension was centrifuged for 5 min at 1000 rpm. Cells were homogenized (ultrathurrax) in a buffer containing 20 mM Na-HEPES and 10 mM EDTA (pH 7.4) and centrifuged at 20.000 rpm for 15 min. The resulting pellet was resuspended, homogenized and centrifuged (20.000 rpm, 15 min) in a buffer containing 20 mM Na-HEPES and 0.1 mM EDTA (pH 7.4, buffer 2). The resulting pellet was resuspended in buffer 2 and protein concentration was measured (BCA protein Assay, Pierce). The homogenate was kept cold during the whole procedure. The membranes were kept at −80° C. until use. The assay was performed in a 384 well Optiplate (PerkinElmer) in a total volume of 40 ul. Membranes were mixed with SPA beads. Final concentration of membranes 35 ng/μL final and SPA beads was 0.05 mg/well. Test-compounds were dissolved in DMSO and further diluted in assay buffer (50 mM Hepes, pH 7.4, 1 mM CaCl2, 5 mM MgCl₂, 0.1% OA and 0.02% Tween20). […] The final mixture was incubated with shaking at 400 rpm for 120 min at 25° C. prior to centrifugation (1500 rpm, 10 min). Samples were analyzed on TopCounter™ (Packard). The IC₅₀ was calculated using (one site binding competition analysis) GraphPad Prism5 as a measure of receptor affinity.
Binder,Ratio hCT/hAmylin funct. [1],hAmylin-R funct. EC50 [1] [pM],hCTR funct. EC50 [2] [pM],IC50 [3] [pM]
B1,3.6,80,285,217
B2,5.7,128,729,996
B3,1.2,60,70,321
B4,1,162,160,374
